Reference: patent US20110014117A1

Legend:
[1] = target: recombinant human soluble IGF1R fragment (R&D Systems) (human); test: competitive ELISA on coated sIGF1R fragment, competitor biotinylated 19D12 LCF/HCA; antibody at 1 ug/ml
[2] = target: recombinant human soluble IGF1R fragment (R&D Systems) (human); test: competitive ELISA on coated sIGF1R fragment, competitor biotinylated 19D12 LCF/HCA; antibody at 2 ug/ml
[3] = target: recombinant human soluble IGF1R fragment (R&D Systems) (human); test: competitive ELISA on coated sIGF1R fragment, competitor biotinylated 19D12 LCF/HCA; antibody at 4 ug/ml
[4] = target: recombinant human soluble IGF1R fragment (R&D Systems) (human); test: competitive ELISA on coated sIGF1R fragment, competitor biotinylated 19D12 LCF/HCA; antibody at 8 ug/ml
[5] = target: recombinant human soluble IGF1R fragment (R&D Systems) (human); test: competitive ELISA on coated sIGF1R fragment, competitor biotinylated 19D12 LCF/HCA; antibody at 0.5 ug/ml
[6] = target: recombinant human soluble IGF1R fragment (R&D Systems) (human); test: competitive ELISA on coated sIGF1R fragment, competitor biotinylated 19D12 LCF/HCA; antibody at 0.25 ug/ml
[7] = target: recombinant human soluble IGF1R fragment (R&D Systems) (human); test: competitive ELISA on coated sIGF1R fragment, competitor biotinylated 19D12 LCF/HCA; antibody at 0.125 ug/ml
[8] = target: recombinant human soluble IGF1R fragment (R&D Systems) (human); test: competitive ELISA on coated sIGF1R fragment, competitor biotinylated 19D12 LCF/HCA; antibody at 0.0625 ug/ml
[9] = target: recombinant human soluble IGF1R fragment (R&D Systems) (human); test: competitive ELISA on coated sIGF1R fragment, competitor biotinylated 19D12 LCF/HCA; antibody at 0.03125 ug/ml
[10] = target: recombinant human soluble IGF1R fragment (R&D Systems) (human); test: competitive ELISA on coated sIGF1R fragment, competitor biotinylated 19D12 LCF/HCA; antibody at 0.007813 ug/ml
[11] = target: recombinant human soluble IGF1R fragment (R&D Systems) (human); test: competitive ELISA on coated sIGF1R fragment, competitor biotinylated 19D12 LCF/HCA; antibody at 0.015625 ug/ml
[12] = target: recombinant human soluble IGF1R fragment (R&D Systems) (human); test: competitive ELISA on coated sIGF1R fragment, inhibition of biotinylated 19D12 LCF/HCA binding; antibody at 1 ug/ml
[13] = target: recombinant human soluble IGF1R fragment (R&D Systems) (human); test: competitive ELISA on coated sIGF1R fragment, inhibition of biotinylated 19D12 LCF/HCA binding; antibody at 2 ug/ml
[14] = target: recombinant human soluble IGF1R fragment (R&D Systems) (human); test: competitive ELISA on coated sIGF1R fragment, inhibition of biotinylated 19D12 LCF/HCA binding; antibody at 4 ug/ml
[15] = target: recombinant human soluble IGF1R fragment (R&D Systems) (human); test: competitive ELISA on coated sIGF1R fragment, inhibition of biotinylated 19D12 LCF/HCA binding; antibody at 8 ug/ml
[16] = target: recombinant human soluble IGF1R fragment (R&D Systems) (human); test: competitive ELISA on coated sIGF1R fragment, inhibition of biotinylated 19D12 LCF/HCA binding; antibody at 0.5 ug/ml
[17] = target: recombinant human soluble IGF1R fragment (R&D Systems) (human); test: competitive ELISA on coated sIGF1R fragment, inhibition of biotinylated 19D12 LCF/HCA binding; antibody at 0.25 ug/ml
[18] = target: recombinant human soluble IGF1R fragment (R&D Systems) (human); test: competitive ELISA on coated sIGF1R fragment, inhibition of biotinylated 19D12 LCF/HCA binding; antibody at 0.125 ug/ml
[19] = target: recombinant human soluble IGF1R fragment (R&D Systems) (human); test: competitive ELISA on coated sIGF1R fragment, inhibition of biotinylated 19D12 LCF/HCA binding; antibody at 0.0625 ug/ml
[20] = target: recombinant human soluble IGF1R fragment (R&D Systems) (human); test: competitive ELISA on coated sIGF1R fragment, inhibition of biotinylated 19D12 LCF/HCA binding; antibody at 0.03125 ug/ml
[21] = target: recombinant human soluble IGF1R fragment (R&D Systems) (human); test: competitive ELISA on coated sIGF1R fragment, inhibition of biotinylated 19D12 LCF/HCA binding; antibody at 0.007813 ug/ml
[22] = target: recombinant human soluble IGF1R fragment (R&D Systems) (human); test: competitive ELISA on coated sIGF1R fragment, inhibition of biotinylated 19D12 LCF/HCA binding; antibody at 0.015625 ug/ml

Substance | OD [1] | OD [2] | OD [3] | OD [4] | OD [5] | OD [6] | OD [7] | OD [8] | OD [9] | OD [10] | OD [11] | % Inhibition [12] | % Inhibition [13] | % Inhibition [14] | % Inhibition [15] | % Inhibition [16] | % Inhibition [17] | % Inhibition [18] | % Inhibition [19] | % Inhibition [20] | also measured
anti-IGF1R antibody 19D12 LCF/HCA | 0.001 OD | -0.0025 OD | -0.0025 OD | -0.0045 OD | 0.021 OD | 0.169 OD | 0.443 OD | 1 OD | 1.1 OD | 1.23 OD | 1.25 OD | 99.9% | 100% | 100% | 100% | 98.4% | 86.8% | 65.3% | 21.7% | 13.8% | % Inhibition [21]: 4.05%; % Inhibition [22]: 2.33%
commercially available anti-IGF1R antibody MAB391 | 0.355 OD | 0.163 OD | 0.0725 OD | 0.045 OD | 0.628 OD | 0.981 OD | 1.16 OD | 1.24 OD | 1.41 OD | 1.31 OD | 1.25 OD | 72.2% | 87.2% | 94.3% | 96.5% | 50.9% | 23.3% | 9.61% | 2.69% | -10.1% | % Inhibition [21]: -2.16%; % Inhibition [22]: 1.9%
